Data from patent US12448462 (dated 2025).
Like-named read-outs stand apart in the source and are kept apart here.

What was measured:
[1] = molecular target: T1, MUC1 (MUC1-C) on cells (UniProt P15941 24-1255); test: flow
[2] = molecular target: T1, MUC1 (MUC1-C) on cells; test: flow; remark: listed apart in the source

B1: T4E3 scFv-Fc (Fc fusion)
VH: QVQLVQSGGGLVQPGGSLRLSCAASGFTFDDYAMHWVRQAPGKGLEWVSGISWNSGSIGYADSVKGRFTISRDNAKNSLYLQMNSLRAEDTALYYCAKDIGSGSYYNYYYGMDVWGQGTTATISS
VL: SSELTQDPAVSVALGQTVRITCQGDSLRSYYASWYQQKPGQAPVLVIYGKNSRPSGIPDRFSGSNSGSTASLTITGAQAEDEADYYCNSRDRYGNSLVIFGGGTKLTVL
- EC50 [1]: 0.033 µg/mL
- EC50 [2]: 0.033 µg/mL
